Experimental data reported in patent publication US20200181243A1.
Like-named read-outs stand apart in the source and are kept apart here.

Tests used:
Hemagglutinin (HA) [1] = biological target: Hemagglutinin (HA)
Hemagglutinin (HA) [2] = test: Hemagglutinin (HA) binding ELISA potency; antibody in Formulation #3, t=0

B1: Ab 044 (antibody, V domains shown)
VH: QVQLLETGGGLVKPGQSLKLSCAASGFTFTSYAMHWVRQPPGKGLEWVAVVSYDGNYKYYADSVQGRFTISRDNSKNTLYLQMNSLRAEDTAVYYCAKDSRLRSLLYFEWLSQGYFNPWGQGTTLTVSS
VL: DIQMTQSPSSLSASVGDRVTITCRSSQSITFDYKNYLAWYQQKPGKAPKLLIYWGSYLESGVPSRFSGSGSGTDFTLTISSLQPEDFATYYCQQHYRTPPSFGQGTKVEIK
% Activity (Hemagglutinin (HA) [1]): 97% | Average % Activity (Hemagglutinin (HA) [1]): 110% | % Activity (Hemagglutinin (HA) [2]): 123%
